Source: patent US20250076311A1 (Chugai, published 2025)

T1: human FcγRIIb constitutively expressed on MDCK cells (human, UniProt P31994 43-310)
T1 sequence (looked up): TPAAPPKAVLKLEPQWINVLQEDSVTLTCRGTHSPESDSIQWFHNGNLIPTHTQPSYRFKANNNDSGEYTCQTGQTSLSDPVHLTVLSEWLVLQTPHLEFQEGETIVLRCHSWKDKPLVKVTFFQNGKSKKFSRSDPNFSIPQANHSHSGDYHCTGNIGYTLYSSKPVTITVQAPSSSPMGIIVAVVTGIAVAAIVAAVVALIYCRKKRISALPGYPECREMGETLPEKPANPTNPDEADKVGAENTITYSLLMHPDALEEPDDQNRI

T2: soluble mouse FcγRII, His-tagged (mouse, UniProt P08101 30-210, limits assumed)
T2 construct: Captured on the chip through an anti-His antibody
T2 sequence (looked up): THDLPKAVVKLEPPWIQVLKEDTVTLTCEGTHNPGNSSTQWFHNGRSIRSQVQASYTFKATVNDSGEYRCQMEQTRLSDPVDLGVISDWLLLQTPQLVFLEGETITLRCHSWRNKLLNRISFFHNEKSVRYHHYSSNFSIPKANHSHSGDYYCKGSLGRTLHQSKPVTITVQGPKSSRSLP


Tests used:
[1] = molecular target: T1, human FcγRIIb constitutively expressed …; assay: cell-based or functional assay
[2] = molecular target: T2, soluble mouse FcγRII, His-tagged; assay: SPR, mouse FcγRII captured via His-tag, antigen-antibody complex injected, pH 7.4, 25 C
Description: Regarding the produced Fc region variant-containing antibodies, binding assays between soluble mouse FcγRII and antigen-antibody complexes were performed using BIACORE® T200 (GE Healthcare). Soluble mouse FcγRII was produced in the form of a His-tagged molecule by a method known to those skilled in the art. An appropriate amount of an anti-His antibody was fixed onto Sensor chip CM5 (GE Healthcare) by the amine coupling method using a His capture kit (GE Healthcare) to capture mouse FcγRII. Next, an antibody-antigen complex and a running buffer (as a reference solution) were injected, and interaction was allowed to take place with the mouse FcγRII captured onto the sensor chip. 20 mM N-(2-Acetamido)-2-aminoethanesulfonic acid, 150 mM NaCl, 1.2 mM CaCl₂), and 0.05% (w/v) TWEEN® 20 at pH7.4 was used as the running buffer, and the respective buffer was also used to dilute the soluble mouse FcγRII. To regenerate the sensor chip, 10 mM glycine-HCl at pH1.5 was used. All measurements were carried out at 25° C. […] To calculate the parameters, the BIACORE® T100 Evaluation Software (GE Healthcare) was used.

Row | Binder | celluar uptake (labelled human latent myostatin taken up as antigen-antibody complex) [1] | biacore IC binding (relative, SG1 = 1.00) [2]
1 | MS1032LO06-P1375m (antibody, human IgG1, kappa, name in EU numbering, also called M103205H795-P1375m; copies: 2 + 2) heavy: not shown light: DIVMTQSPATLSLSPGERATLSCTSSQSVYHANWLSWFQQKPGQPPKLLIYWASTLAYGVPSRFSGSGSGTDFTLTISSLQPEDAATYYCAGGYGGGRYAFGQGTKVEIKRTVAAPSVFIFPPSDEQLKSGTASVVCLLNNFYPREAKVQWKVDNALQSGNSQESVTEQDSKDSTYSLSSTLTLSKADYEKHKVYACEVTHQGLSSPVTKSFNRGEC | 3.43 relative to SG1 = 1.00 | 1.21 relative to SG1
2 | M103205H795-P1494m/M103202L889-SK1 (antibody, human IgG1, kappa, name in EU numbering, copies: 2 + 2) heavy: not shown light: DIVMTQSPATLSLSPGERATLSCTSSQSVYHANWLSWFQQKPGQPPKLLIYWASTLAYGVPSRFSGSGSGTDFTLTISSLQPEDAATYYCAGGYGGGRYAFGQGTKVEIKRTVAAPSVFIFPPSDEQLKSGTASVVCLLNNFYPREAKVQWKVDNALQSGNSQESVTEQDSKDSTYSLSSTLTLSKADYEKHKVYACEVTHQGLSSPVTKSFNRGEC | 1.12 relative to SG1 = 1.00 | 1.14 relative to SG1
3 | M103205H795-P1489m/M103202L889-SK1 (antibody, human IgG1, kappa, name in EU numbering, copies: 2 + 2) heavy: not shown light: DIVMTQSPATLSLSPGERATLSCTSSQSVYHANWLSWFQQKPGQPPKLLIYWASTLAYGVPSRFSGSGSGTDFTLTISSLQPEDAATYYCAGGYGGGRYAFGQGTKVEIKRTVAAPSVFIFPPSDEQLKSGTASVVCLLNNFYPREAKVQWKVDNALQSGNSQESVTEQDSKDSTYSLSSTLTLSKADYEKHKVYACEVTHQGLSSPVTKSFNRGEC | 1.68 relative to SG1 = 1.00 | 1.24 relative to SG1
4 | M103205H795-P1487m/M103202L889-SK1 (antibody, human IgG1, kappa, name in EU numbering, copies: 2 + 2) heavy: not shown light: DIVMTQSPATLSLSPGERATLSCTSSQSVYHANWLSWFQQKPGQPPKLLIYWASTLAYGVPSRFSGSGSGTDFTLTISSLQPEDAATYYCAGGYGGGRYAFGQGTKVEIKRTVAAPSVFIFPPSDEQLKSGTASVVCLLNNFYPREAKVQWKVDNALQSGNSQESVTEQDSKDSTYSLSSTLTLSKADYEKHKVYACEVTHQGLSSPVTKSFNRGEC | 1.23 relative to SG1 = 1.00 | 1.46 relative to SG1
5 | M103205H795-P1498m/M103202L889-SK1 (antibody, human IgG1, kappa, name in EU numbering) heavy: not shown light: DIVMTQSPATLSLSPGERATLSCTSSQSVYHANWLSWFQQKPGQPPKLLIYWASTLAYGVPSRFSGSGSGTDFTLTISSLQPEDAATYYCAGGYGGGRYAFGQGTKVEIKRTVAAPSVFIFPPSDEQLKSGTASVVCLLNNFYPREAKVQWKVDNALQSGNSQESVTEQDSKDSTYSLSSTLTLSKADYEKHKVYACEVTHQGLSSPVTKSFNRGEC | 1.56 relative to SG1 = 1.00 | 1.38 relative to SG1
6 | M103205H795-P1484m/M103202L889-SK1 (antibody, human IgG1, kappa, name in EU numbering, copies: 2 + 2) heavy: not shown light: DIVMTQSPATLSLSPGERATLSCTSSQSVYHANWLSWFQQKPGQPPKLLIYWASTLAYGVPSRFSGSGSGTDFTLTISSLQPEDAATYYCAGGYGGGRYAFGQGTKVEIKRTVAAPSVFIFPPSDEQLKSGTASVVCLLNNFYPREAKVQWKVDNALQSGNSQESVTEQDSKDSTYSLSSTLTLSKADYEKHKVYACEVTHQGLSSPVTKSFNRGEC | 0 relative to SG1 = 1.00 | 1.33 relative to SG1
7 | M103205H795-P1492m/M103202L889-SK1 (antibody, human IgG1, kappa, name in EU numbering, copies: 2 + 2) heavy: not shown light: DIVMTQSPATLSLSPGERATLSCTSSQSVYHANWLSWFQQKPGQPPKLLIYWASTLAYGVPSRFSGSGSGTDFTLTISSLQPEDAATYYCAGGYGGGRYAFGQGTKVEIKRTVAAPSVFIFPPSDEQLKSGTASVVCLLNNFYPREAKVQWKVDNALQSGNSQESVTEQDSKDSTYSLSSTLTLSKADYEKHKVYACEVTHQGLSSPVTKSFNRGEC | 1.13 relative to SG1 = 1.00 | 0.88 relative to SG1
8 | M103205H795-P1485m/M103202L889-SK1 (antibody, human IgG1, kappa, name in EU numbering, copies: 2 + 2) heavy: not shown light: DIVMTQSPATLSLSPGERATLSCTSSQSVYHANWLSWFQQKPGQPPKLLIYWASTLAYGVPSRFSGSGSGTDFTLTISSLQPEDAATYYCAGGYGGGRYAFGQGTKVEIKRTVAAPSVFIFPPSDEQLKSGTASVVCLLNNFYPREAKVQWKVDNALQSGNSQESVTEQDSKDSTYSLSSTLTLSKADYEKHKVYACEVTHQGLSSPVTKSFNRGEC | 1.88 relative to SG1 = 1.00 | 1.29 relative to SG1
9 | M103205H795-P1495m/M103202L889-SK1 (antibody, human IgG1, kappa, name in EU numbering, copies: 2 + 2) heavy: not shown light: DIVMTQSPATLSLSPGERATLSCTSSQSVYHANWLSWFQQKPGQPPKLLIYWASTLAYGVPSRFSGSGSGTDFTLTISSLQPEDAATYYCAGGYGGGRYAFGQGTKVEIKRTVAAPSVFIFPPSDEQLKSGTASVVCLLNNFYPREAKVQWKVDNALQSGNSQESVTEQDSKDSTYSLSSTLTLSKADYEKHKVYACEVTHQGLSSPVTKSFNRGEC | 1.76 relative to SG1 = 1.00 | 1.3 relative to SG1
10 | M103205H795-P1488m/M103202L889-SK1 (antibody, human IgG1, kappa, name in EU numbering, copies: 2 + 2) heavy: not shown light: DIVMTQSPATLSLSPGERATLSCTSSQSVYHANWLSWFQQKPGQPPKLLIYWASTLAYGVPSRFSGSGSGTDFTLTISSLQPEDAATYYCAGGYGGGRYAFGQGTKVEIKRTVAAPSVFIFPPSDEQLKSGTASVVCLLNNFYPREAKVQWKVDNALQSGNSQESVTEQDSKDSTYSLSSTLTLSKADYEKHKVYACEVTHQGLSSPVTKSFNRGEC | 1.45 relative to SG1 = 1.00 | 1.43 relative to SG1
11 | M103205H795-P1497m/M103202L889-SK1 (antibody, human IgG1, kappa, name in EU numbering) heavy: not shown light: DIVMTQSPATLSLSPGERATLSCTSSQSVYHANWLSWFQQKPGQPPKLLIYWASTLAYGVPSRFSGSGSGTDFTLTISSLQPEDAATYYCAGGYGGGRYAFGQGTKVEIKRTVAAPSVFIFPPSDEQLKSGTASVVCLLNNFYPREAKVQWKVDNALQSGNSQESVTEQDSKDSTYSLSSTLTLSKADYEKHKVYACEVTHQGLSSPVTKSFNRGEC | 1.38 relative to SG1 = 1.00 | 1.49 relative to SG1
12 | M103205H795-P1493m/M103202L889-SK1 (antibody, human IgG1, kappa, name in EU numbering, copies: 2 + 2) heavy: not shown light: DIVMTQSPATLSLSPGERATLSCTSSQSVYHANWLSWFQQKPGQPPKLLIYWASTLAYGVPSRFSGSGSGTDFTLTISSLQPEDAATYYCAGGYGGGRYAFGQGTKVEIKRTVAAPSVFIFPPSDEQLKSGTASVVCLLNNFYPREAKVQWKVDNALQSGNSQESVTEQDSKDSTYSLSSTLTLSKADYEKHKVYACEVTHQGLSSPVTKSFNRGEC | 0.99 relative to SG1 = 1.00 | 1.1 relative to SG1
13 | M103205H795-P1486m/M103202L889-SK1 (antibody, human IgG1, kappa, name in EU numbering, copies: 2 + 2) heavy: not shown light: DIVMTQSPATLSLSPGERATLSCTSSQSVYHANWLSWFQQKPGQPPKLLIYWASTLAYGVPSRFSGSGSGTDFTLTISSLQPEDAATYYCAGGYGGGRYAFGQGTKVEIKRTVAAPSVFIFPPSDEQLKSGTASVVCLLNNFYPREAKVQWKVDNALQSGNSQESVTEQDSKDSTYSLSSTLTLSKADYEKHKVYACEVTHQGLSSPVTKSFNRGEC | 1.52 relative to SG1 = 1.00 | 1.2 relative to SG1
14 | M103205H795-P1490m/M103202L889-SK1 (antibody, human IgG1, kappa, name in EU numbering, copies: 2 + 2) heavy: not shown light: DIVMTQSPATLSLSPGERATLSCTSSQSVYHANWLSWFQQKPGQPPKLLIYWASTLAYGVPSRFSGSGSGTDFTLTISSLQPEDAATYYCAGGYGGGRYAFGQGTKVEIKRTVAAPSVFIFPPSDEQLKSGTASVVCLLNNFYPREAKVQWKVDNALQSGNSQESVTEQDSKDSTYSLSSTLTLSKADYEKHKVYACEVTHQGLSSPVTKSFNRGEC | 1.33 relative to SG1 = 1.00 | 1.28 relative to SG1
15 | M103205H795-P1496m/M103202L889-SK1 (antibody, human IgG1, kappa, name in EU numbering, copies: 2 + 2) heavy: not shown light: DIVMTQSPATLSLSPGERATLSCTSSQSVYHANWLSWFQQKPGQPPKLLIYWASTLAYGVPSRFSGSGSGTDFTLTISSLQPEDAATYYCAGGYGGGRYAFGQGTKVEIKRTVAAPSVFIFPPSDEQLKSGTASVVCLLNNFYPREAKVQWKVDNALQSGNSQESVTEQDSKDSTYSLSSTLTLSKADYEKHKVYACEVTHQGLSSPVTKSFNRGEC | 1.69 relative to SG1 = 1.00 | 1.28 relative to SG1
16 | M103205H795-P1491m/M103202L889-SK1 (antibody, human IgG1, kappa, name in EU numbering, copies: 2 + 2) heavy: not shown light: DIVMTQSPATLSLSPGERATLSCTSSQSVYHANWLSWFQQKPGQPPKLLIYWASTLAYGVPSRFSGSGSGTDFTLTISSLQPEDAATYYCAGGYGGGRYAFGQGTKVEIKRTVAAPSVFIFPPSDEQLKSGTASVVCLLNNFYPREAKVQWKVDNALQSGNSQESVTEQDSKDSTYSLSSTLTLSKADYEKHKVYACEVTHQGLSSPVTKSFNRGEC | 1.37 relative to SG1 = 1.00 | 1.05 relative to SG1
